Reference: US20230105457A1, “Immunogenic Compounds For Treatment Of Adrenal Cancer” (ENTEROME S.A., priority 2019, published 2023)
Read-outs that look alike come from different tables or passages of the source.

Legend:
HLA-A*0201 = HLA-A*0201 (Homo sapiens, UniProt P04439, D140Y/D185E/D98H/E176V/E277Q/G131W/G231S/I119V/I121R/I166T/I218V/L300P/L318F/N151K/N90K/P208A/P217A/Q86G/Q94H/R138H/R169H/T345S); conditions: for Mean fluorescence intensity: T2 cells
[1] = test system: U87 cells (expressing IL13RA2); assay: In vitro cytotoxicity of T cells from immunized HHD mice against U87 cells (Example 4); type: cell-based; conditions: CD3+ T cells of mice immunized with the peptide, 72 h co-culture with U87-MG
Experimental: Briefly, […] from mice immunized with IL13RA2-H or IL13RA2-B were used. These cells were obtained after sorting of splenocyte from immunized mice and were placed on top of U87 cells (expressing IL13RA2).
In more detail, CD3+ T cells were purified from splenocytes of HHD mice immunized with IL13RA2-H ([…], SEQ ID No 263) or IL13RA2-B ([…]). To this end, B6 β2m^ko HHD/DR3 mice were injected s.c. at tail base with 100 μL of an oil-based emulsion containing vaccination peptide plus helper peptide plus CFA (complete Freund's adjuvant), at day 0 and day 14. On d21, i.e. seven days after the boost injection, the animals were euthanized and the spleen was harvested. Splenocytes were prepared by mechanical disruption of the organ. CD3+ purification was performed using the mouse total T cells isolation kit from Miltenyi biotec using the recommended procedure. Efficient purification of cells and viability was validated by cytometry using appropriate marker for viability, CD8, CD4, CD3, and CD45. […]
72 hours after co-culture of U87-MG cells and CD3+ T cells, all cells from the wells were harvested and specific U87-MG cell death was evaluated after immunostaining of CD45 negative cells with DAPI and fluorescent annexin V followed by cytometry analysis.

[2] = test system: splenocytes of HHD DR3 mice expressing human HLA-A2 and HLA-DR3; assay: IFN-γ ELISpot immunogenicity and cross-reactivity in HHD DR3 mice (Examples 6, 10, 11); type: in vivo, mouse; conditions: 100 μg s.c. days 0 and 14, helper peptide DR3 and IFA
Experimental: Concanavalin A (ConA) was used as a positive control.
The antigenic peptide of the invention BIRC5-B1 (SEQ ID NO: 289) and the corresponding human peptide BIRC5-H (SEQ ID NO: 286) were tested in distinct groups of male and female HHD DR3 mice expressing human HLA-A2 and HLA-DR3 MHC and lacking the murine H-2 class I and class II MHCs. Groups of 5 mice (male and female) were subcutaneously injected on days 0 and 14 with 100 μg of BIRC5-B1 or BIRC5-H, 150 μg of helper peptide (DR3) and IFA. On day 21, the mice were euthanized and splenocytes were prepared and stimulated in vitro with BIRC5-B1 or the human peptide BIRC5-H to assess their capacity to secrete IFN- as assessed by ELISpot. ConA was used as a positive control.
The antigenic peptide of the invention FOXM1-B2 (SEQ ID NO: 312) and the corresponding human peptide FOXM1-H2 (SEQ ID NO: 293) were tested in distinct groups of male and female HHD DR3 mice expressing human HLA-A2 and HLA-DR3 MHC and lacking the murine H-2 class I and class II MHCs. Groups of 5 mice (male and female) were subcutaneously injected on days 0 and 14 with 100 μg of FOXM1-B2 or FOXM1-H2, 150 μg of helper peptide (DR3) and IFA. On day 21, the mice were euthanized and splenocytes were prepared and stimulated in vitro with FOXM1-B2 or the human corresponding peptide FOXM1-H2 to assess their capacity to secrete IFN- as assessed by ELISpot. ConA was used as a positive control.

Concentration of peptide that induces 20% of HLA-A2 expression (HLA-A*0201; T2 cell line, HLA-A*0201, Example 13, protocol as in Example 3): 62.3 µM
Concentration that induces 20% of expression of the HLA-A*0201 (HLA-A*0201; T2 cells (Example 1)): 100 µM
Mean fluorescence intensity (HLA-A*0201; peptide at 0.1 μM (Example 1)): 7.46
Mean fluorescence intensity (HLA-A*0201; peptide at 1 μM (Example 1)): 9.41
Mean fluorescence intensity (HLA-A*0201; peptide at 10 μM (Example 1)): 11.61
Mean fluorescence intensity (HLA-A*0201; peptide at 100 μM (Example 1)): 18.64
Sequence: WLPFGFILI [IL13RA2-H, reference compound]
U87 cell lysis (in words) [1]: not
Immunogenicity, IFN-γ ELISpot SFC (in words) [2]: does not induce an immune response
